Reference: the supplement of paper PMC10266784

B1: library; numbered along this chain (parent)
chain: MAAAAAAAAEQQSSNGPVKKSMREKAVERRSVNKEHNSNFKAGYIPIDEDRLHKTGLRGRKGNLAICVIILLFILAVINLIITLVIWAVIRIGPNGCDSMEFHESGLLRFKQVSDMGVIHPLYKSTVGGRRNENLVITGNNQPIVFQQGTTKLSVENNKTSITSDIGMQFFDPRTQNILFSTDYETHEFHLPSGVKSLNVQKASTERITSNATSDLNIKVDGRAIVRGNEGVFIMGKTIEFHMGGNMELKAENSIILNGSVMVSTTRLPSSSSGDQLGSGDWVRYKLCMCADGTLFKVQVTSQNMGCQISDNPCGNTH

Variants of: B1
Test: SGCB cell-surface expression functional score (HA stain, bin4 vs bin1, normalised to synonymous) (log10 ratio); higher = more cell-surface SGCB (functional)
Description: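 Deep mutational scan of full-length human SGCB (YFP-SGCB-HA, NNN codon sublibraries A-F) delivered by lentivirus at low MOI into ADG-HEK293 cells stably expressing SGCA, SGCD and SGCG. YFP-positive cells were stained for surface HA on unpermeabilized cells and FACS-sorted into bins. The functional score is log10(frequency in high bin 4 / frequency in low bin 1), normalised per chunk so that synonymous variants have mean 0 and SD 0.5. Scores are the median over codons and over duplicate biological replicates; scores below -0.5 are called non-functional. Scale: negative means deleterious.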

SGCB cell-surface expression functional score (log10) of substitutions, site by site:
L52: N 0.27, P 0.32, D 0.39, Y 0.25, K -0.26, G 0.29, T 0.42, F 0.04, R 0.05, S -0.1, Q 0.35, I -0.3, A 0.22, V 0.17, H 0.01, E 0.55, C 0.09, M 0.34, W -0.3
L57: Y 0.49, C 0.07, I 0.49, K 0.32, G 0.28, A 0.45, F 0.06, V 0.2, M 0.09, R 0.07, H -0.36, P -0.03, N 0.02, S 0.11, T 0.18, D -0.4, Q -0.03, W 0.44, E 0.04
R58: T 0.24, E -0.08, F 0.09, V -0.04, N 0.17, M -0.15, P 0.27, K -0.66, A 0.08, W -0.26, I 0.13, D 0.21, L 0, C -0.55, G 0, Q -0.12, S -0.22, H 0.19, Y 0.71
G59: F 0.13, L 0.09, Q -0.24, N 0, I -0.01, M 0.31, C 0.05, K 0.12, A -0.59, P 0.12, H 0.1, T 0.25, S -0.13, R -0.17, E -0.2, V 0.33, Y 0.17, D 0.04
R51: M -0.39, P 0.04, E 0.04, F 0.49, D -0.06, Y 0.17, Q 0.54, G -0.17, V 0.39, I 0.36, H 0, S 0.04, K 0.63, A 0.1, C -0.24, L 0.47, W 0.83, N 0.2, T 0.01
H53: W -0.6, N 0.08, F -0.19, D -0.16, A 0.38, C -0.27, V 0.1, K -0.51, S -0.22, T 0.14, G 0.41, E -0.28, Q 0.39, Y 0.27, R 0.29, M 0.08, L -0.05, I 0.12, P 0.19
L64: I -0.1, N 0.28, E -0.26, G -0.2, P -0.26, T 0.11, V 0.25, W -0.254, A -0.31, S 0.31, Q 0.03, K 0.15, R 0.07, Y 0.16, F 0.43, H 0.16, C 0.26, M -1.4, D -0.4
R60: L 0.11, Y -0.12, I 0.5, K 0.08, A -0.28, E 0.4, C 0.47, V -0.09, H -0.21, N 0.1, Q 0.38, G -0.33, T 0.01, W -0.101, D 0.39, S 0.18, P -0.19, F -0.05
A65: D 0.08, F 0.21, L 0.15, G -0.03, V 0.3, H -0.17, N 0.06, Q -0.13, E -0.2, Y 0.12, P -0.28, I 0.15, T -0.01, W 0.48, K 0.51, M -0.02, C 0.32, S 0.01, R -0.07
C67: V 0.28, G 0.18, L 0.25, Y 0.04, H 0.38, F -0.08, Q 0.4, P 0.26, I 0.33, A 0.57, D 0.11, M -0.01, S 0.04, E 0.39, R 0.08, N 0.19, K 0.29, W 0.43, T -0.03
I66: T 0.03, Y 0.29, F -0.03, M 0.3, D 0, R 0.43, C 0.65, V 0.2, N 0.47, Q -0.15, H -0.2, A -0.11, E 0.12, P -0.35, K 0.5, G 0, S 0.07, W 0.01, L -0.78
N63: I -0.14, F 0.08, C -0.16, E -0.28, Y 0.25, L 0.03, R 0.07, T 0.43, W 0.22, M -0.11, V -0.44, G 0.13, S -0.25, A -0.08, K 0.24, D -0.06, P 0.32, H 0.28, Q 0.11
D50: T 0.44, R 0.28, Y 0, M 0.2, S 0.26, N 0.29, V -0.03, P -0.16, W -0.47, Q 0.04
K54: Q -0.58, T 0.27, N 0.23, V 0.08, C 0.29, F -0.13, L 0.21, P -0.04, W 0.69, G 0.21, M -0.19, R 0.2, S 0.14, Y 0.29, A 0.23, I 0.01, D -0.71, H -0.42, E 0.02
K61: H -0.27, F 0.7, Q -0.08, V 0.07, S 0.07, T 0.03, C 0.35, M -0.03, N -0.39, D -0.36, Y 0.64, A -0.12, P -0.2, L 0.26, W 0.05, E -0.08, I 0.48, G 0.03, R -0.23
G62: A 0.02, W -0.11, T -0.09, M 0.13, H 0.18, E 0.11, K -0.29, N -0.29, F 0.5, Q 0.34, P 0.36, Y -0.05, D 0.29, L 0.53, C 0.33, V -0.21, I 0.26, R 0.23, S 0.18
V68: C 0.91, A -0.01, D -0.25
T55: W -0.27, A -0.43, S 0.22, C 0.27, R 0.21, M 0.6, E -0.18, G 0.16, Q -0.62, H 0.01, D 0.39, Y 0.15, P 0.19, F 0.18, I 0.07, N 0.75, V -0.07, K -0.06, L 0.08
G56: W -0.16, S 0.21, D -0.5, A 0.21, C -0.17, F 0.28, K 0.41, N -0.1, H 0.15, E -0.3, P 0.22, Q -0.39, R 0.14, M -0.31, T 0.4, V 0.05, Y 0.34, I 0.26, L 0.23
